Data as given in patent publication US20230226096A1 (Orna Therapeutics, Inc., priority 2020, published 2023).

B1: Wobbly possum disease virus (nucleic acid)
DNA: CGGCTGTGAGTGCTTAGCATATGCTAGAGTACTACAGCCGGGTGTTGGAGTCATATGCACTGGTTGCCTGTATAATAGTCGGGATCTGTCTGACCTACATTATCTTTGGGAGTTGCTTATCACGACAATTCTCGAAGTGTCTGTCGACAGCTTACCCCCGATTCGACAAGGCCCCTTGTCCACCGCAGACCTATCGATTTTCAACGAGAACACTATCAGAGGTTTAAATTTAAAACTCACCAACA
B2: Caprine Kobuvirus d10 (nucleic acid, listed as Kobuvirus sp.)
DNA: GGGGCCTCGGCCCCCTCACCCTCTTTTCCGGTGGCCACGCCCGGGCCACCGATACTTCCCTTCACTCCTTCGGGACTGTTGGGGAGGAACACAACAGGGCTCCCCTGTTTTCCCATTCCTTCCCCCTTTTCCCAACCCCAACCGCCGTATCTGGTGGCGGCAAGACACACGGGTCTTTCCCTCTAAAGCACAATTGTGTGTGTGTCCCAGGTCCTCCTGCGTACGGTGCGGGAGTGCTCCCACCCAACTGTTGTAAGCCTGTCCAACGCGTCGTCCTGGCAAGACTATGACGTCGCATGTTCCGCTGCGGATGCCGACCGGGTAACCGGTTCCCCAGTGTGTGTAGTGCGATCTTCCAGGTCCTCCTGGTTGGCGTTGTCCAGAAACTGCTTCAGGTAAGTGGGGTGTGCCCAATCCCTACAAAGGTTGATTCTTTCACCACCTTAGGAATGCTCCGGAGGTACCCCAGCAACAGCTGGGATCTGACCGGAGGCTAATTGTCTACGGGTGGTGTTTCCTTTTTCTTTTCACACAACTCTACTGCTGACAACTCACTGACTATCCACTTGCTCTCTTGTGCCTTTCTGCTCTGGTTCAAGTTCCTTGATTGTTTTTGACTGCTTTTCACTGCTTTTCTTCTCACAATCCTTGCTCAGTTCAAAGTC
B3: Sclerotinia sclerotiorum dsRNA mycovirus-L (nucleic acid)
DNA: TTGAATTAATCTTTTACGTTTACGCGCATAAAATCAGGACACATCTCTTGTATACTTTAGTATATCAATGATGTTTTTGTTTTATGCGATTAATCGTAAGAGAACTTCTTTCCATCCGCCTGTATGGGCGGGATAATAAGTTCACCGCCTTGGTCGAGGCGCAAACTTGTATGTGCAAAGGTGAGCTATATGCTCGAAATAGTCGTAACTAACACACAGCCACTACCTGTAGAGCTCTATTGATCCGGAATCCTTTAGTGGGAATGCAGAGCTCACACCGGACCTGCGGGTATCTTCGGCGTTAGGGACTTCTGTTTCAGCCTTGAATCATTTACCTTTATACCTTCTCTGAGGCGCCTGGGCCGGGCGCGATATTAAGTACAAGTCAAGGACATCGCGGGTAGTGGTCTAATCAGCCGCTAGTCCTGCTGGAGAGTTCCAACTTAGTTGGGTGTGGTGCATACTAGCTGGATAGAGTAGGTATGTATTGCTAACGTATGCCGGAGGCTATCCGTCCTCGGTAGAACGTGCCGAGGAGTAGTCTCTGCAGACCCCCGAACGCGTGGGGTCTTTACTTAAATGTAGGCGGAGGGAGCGCTCGTAGGTGGAACGACTGCCTCCCAGTCGAATGCAAGATTTTGCACGCGGACCAGTCTGCCCGGCAATTCCCGGGTG
B4: Avian orthoreovirus segment S1 (nucleic acid, listed as Avian orthoreovirus)
DNA: GCTTTTTCAATCCCTTGTGTCGATGTTCCCGTATGTCATCTGGTTCATGTAACGGTGCAACTTCTATTTTTGGTAACGTTCACTGTCAGGCAGCGCAAAACTCGGCGGGTGGTGATCTTCAAGCGACTTCCTCTCTTGTTGCTTATTGGCCCTACTTGGCTGCGGGCGGTGGTCTGCTCGTTGTTATTATTATAATTGTTGGCGCTGTTTGTTGTTGCAAGGCTAAGGTTAAAGCGGACGCAGCCCGAAACGTTTTCTACCGAGAGCTGTTCGCACTTAATTCGGGTAAAAGTGATGCAGGACCTCCGATTTACCAGGTTTAGTGTACGACGATTTGAGTTTTCACCTTTCGTCTTAGAGGAGTGCACTACTCCATCTTTCACGACTATAACTAATACCGATCCGGCTCTCTACTTTAACATTGAGTTTCCGTCAAGTCATCGTCTCTCCCCCTTCATTCCAGAACTGTTGTCTCAGCCTTGTACCGTTCACGTTTCATTGATTCGGAGATTCGCTCTCTGTGCAACCTTATCTAGTATTTGTGAATACGACTGTGCGCTACTGCCATCCATCAACGCTATTACGACGATCCCTACACCAGGTGCGTCATCATCTCTGATTGTTCATTGGG
B5: Caprine Kobuvirus d40 (nucleic acid, listed as Kobuvirus sp.)
DNA: GTGGCCACGCCCGGGCCACCGATACTTCCCTTCACTCCTTCGGGACTGTTGGGGAGGAACACAACAGGGCTCCCCTGTTTTCCCATTCCTTCCCCCTTTTCCCAACCCCAACCGCCGTATCTGGTGGCGGCAAGACACACGGGTCTTTCCCTCTAAAGCACAATTGTGTGTGTGTCCCAGGTCCTCCTGCGTACGGTGCGGGAGTGCTCCCACCCAACTGTTGTAAGCCTGTCCAACGCGTCGTCCTGGCAAGACTATGACGTCGCATGTTCCGCTGCGGATGCCGACCGGGTAACCGGTTCCCCAGTGTGTGTAGTGCGATCTTCCAGGTCCTCCTGGTTGGCGTTGTCCAGAAACTGCTTCAGGTAAGTGGGGTGTGCCCAATCCCTACAAAGGTTGATTCTTTCACCACCTTAGGAATGCTCCGGAGGTACCCCAGCAACAGCTGGGATCTGACCGGAGGCTAATTGTCTACGGGTGGTGTTTCCTTTTTCTTTTCACACAACTCTACTGCTGACAACTCACTGACTATCCACTTGCTCTCTTGTGCCTTTCTGCTCTGGTTCAAGTTCCTTGATTGTTTTTGACTGCTTTTCACTGCTTTTCTTCTCACAATCCTTGCTCAGTTCAAAGTC
B6: Caprine Kobuvirus d30 (nucleic acid, listed as Kobuvirus sp.)
DNA: CTCTTTTCCGGTGGCCACGCCCGGGCCACCGATACTTCCCTTCACTCCTTCGGGACTGTTGGGGAGGAACACAACAGGGCTCCCCTGTTTTCCCATTCCTTCCCCCTTTTCCCAACCCCAACCGCCGTATCTGGTGGCGGCAAGACACACGGGTCTTTCCCTCTAAAGCACAATTGTGTGTGTGTCCCAGGTCCTCCTGCGTACGGTGCGGGAGTGCTCCCACCCAACTGTTGTAAGCCTGTCCAACGCGTCGTCCTGGCAAGACTATGACGTCGCATGTTCCGCTGCGGATGCCGACCGGGTAACCGGTTCCCCAGTGTGTGTAGTGCGATCTTCCAGGTCCTCCTGGTTGGCGTTGTCCAGAAACTGCTTCAGGTAAGTGGGGTGTGCCCAATCCCTACAAAGGTTGATTCTTTCACCACCTTAGGAATGCTCCGGAGGTACCCCAGCAACAGCTGGGATCTGACCGGAGGCTAATTGTCTACGGGTGGTGTTTCCTTTTTCTTTTCACACAACTCTACTGCTGACAACTCACTGACTATCCACTTGCTCTCTTGTGCCTTTCTGCTCTGGTTCAAGTTCCTTGATTGTTTTTGACTGCTTTTCACTGCTTTTCTTCTCACAATCCTTGCTCAGTTCAAAGTC
B7: Yak enterovirus (nucleic acid, listed as Enterovirus sp.)
DNA: CTCCGGCACAGCCGCACCAGTGCACTGGTACGCTAGTACCTTTTCACGGGGTAGTCGGTATCCCCCCCCGTAACTTAGAAGCATGTAACAAACCGACCAATAGGTGCGCGGCAGCCAGCTGCGTTGCGGTCAAGCACTTCTGTCTCCCCGGTCCGCAAGGATCGTTACCCGCCCACTCCACTACGAGGAGCCTAGTAACTGGCCAAGTGATTGCGGAGTTGCGTTCAGCCACAACCCCAGTGGTAGCTCTGGAAGATGGGGCTCGCACATCCCCCGTGGTAACACGGTTGCTTGCCCGCGTGTGCTTCCGGGTTCAGTCTCCGACTGTTCACTTCAACATCACGCAACCAGCCAAGAGCCGATTGTGCTGGAGTGGTCTTCCTCCGGGGCCGTGAATGCTGCTAATCCTAACCTCCGAGCGTGTGCGCACAATCCAGTGTTGCTACGTCGTAACGCGTAAGTTGGAGGCGGAACAGACTACTTTCGGCACCCCGTGTTTCCTTTATTTTATTCTTATTTTATGGTGACAATTGCAGAGATTTGTGATATTGCGACTTTACCGTTAAACATAGCACTGCATTACCTGGTTGCATTCCACAAAACTTCAGAGATTCCTAGTTCCTACATTGACCTACTTGTTTATTTGAATCTTAAATACAAACTTGAGCAAGTGAA
B8: Aichivirus A FSS693 (nucleic acid)
DNA: CACCCATACACCCCCACCCCCTTTTCTGTAACTCAAGTATGTGTGCTCGTAATCTTGACTCCCACGGAATGGATCGATCCGCTGGAGAACAAACTGCTAGATCCACATCCTCCCTCCCCTTGGGAGGACCTCGGTCCTCCCACATCCTCCCTCCAGCCTGACGTATCACAGGCTGTGTGAAGCCCCCGCGAAAGCTGCTCACGTGGCAATTGTGGGTCCCCCCTTCATCAAGACACCAGGTCTTTCCTCCTTAAGGCTAGCCCCGATGTGTGAATTCACATTGGGCAACTAGTGGTGTCACTGTGCGCTCCCAATCTCGGCCGCGGAGTGCTGTTCCCCAAGCCAAACCCCTGGCCCTTCACTATGTGCCTGGCAAGCATATCTGAGAAGGTGTTCCGCTGTGGCTGCCAGCCTGGTAACAGGTGCCCCAGTGTGCGTAACCTTCTTCCGTCTCCGGACGGTAGTGATTGGTTAAGATTTGGTGTAAGGTTCATGTGCCAACGCCCTGTGCGGGATGAAACCTCTACTGCCCTAGGAATGCCAGGCAGGTACCCCACCTTCGGGTGGGATCTGAGCCTGGGCTAATTGTCTACGGGTAGTTTCATTTCCAATTCTTTTATGCTGGAGTC
modifications: Aichivirus A
B9: Caprine Kobuvirus d20 (nucleic acid, listed as Kobuvirus sp.)
DNA: CCCCCTCACCCTCTTTTCCGGTGGCCACGCCCGGGCCACCGATACTTCCCTTCACTCCTTCGGGACTGTTGGGGAGGAACACAACAGGGCTCCCCTGTTTTCCCATTCCTTCCCCCTTTTCCCAACCCCAACCGCCGTATCTGGTGGCGGCAAGACACACGGGTCTTTCCCTCTAAAGCACAATTGTGTGTGTGTCCCAGGTCCTCCTGCGTACGGTGCGGGAGTGCTCCCACCCAACTGTTGTAAGCCTGTCCAACGCGTCGTCCTGGCAAGACTATGACGTCGCATGTTCCGCTGCGGATGCCGACCGGGTAACCGGTTCCCCAGTGTGTGTAGTGCGATCTTCCAGGTCCTCCTGGTTGGCGTTGTCCAGAAACTGCTTCAGGTAAGTGGGGTGTGCCCAATCCCTACAAAGGTTGATTCTTTCACCACCTTAGGAATGCTCCGGAGGTACCCCAGCAACAGCTGGGATCTGACCGGAGGCTAATTGTCTACGGGTGGTGTTTCCTTTTTCTTTTCACACAACTCTACTGCTGACAACTCACTGACTATCCACTTGCTCTCTTGTGCCTTTCTGCTCTGGTTCAAGTTCCTTGATTGTTTTTGACTGCTTTTCACTGCTTTTCTTCTCACAATCCTTGCTCAGTTCAAAGTC

tested on: HEK293 cells; type: cell-based, human; conditions: luminescence from secreted Gluc in supernatant 24 hours after transfection of HEK293 cells; circular RNA encoding Gluc with the named IRES (UTR truncated to 675 nt)

Question: B1 was tested. Which Expression did it give?
Answer: Its Expression is 2.60E+05.

Question: For B2, which Expression is on record?
Answer: Its Expression is 2.20E+08.

Question: Which Expression does the source give for B3 here?
Answer: Its Expression is 1.69E+05.

Question: With B4 as the molecule, how does the Expression read?
Answer: The Expression was 4.37E+05.

Question: Which Expression does the source give for B5 here?
Answer: Its Expression is 2.15E+08.

Question: With B6 as the molecule, how does the Expression read?
Answer: Its Expression is 1.87E+08.

Question: For B7, which Expression is on record?
Answer: The Expression was 6.19E+06.

Question: With B8 as the molecule, how does the Expression read?
Answer: The Expression was 6.25E+07.

Question: How did the Expression turn out when B9 was run?
Answer: Its Expression is 2.00E+08.
